Publication PMC7991749

Legend:
[1] = tested on: ctXPD (Chaetomium thermophilum); assay: photo-cross-linking; conditions: 5 mM Mg2+, FA: 20 mM HEPES pH 7.5, 30 mM KCl, 5 mM MgCl2, 1 mM TCEP, 10 nM DNA, photo-cross-linking: 20 mM HEPES pH 7.5, 50 mM KCl
[2] = tested on: ctXPD;ctp44 (Chaetomium thermophilum;Chaetomium thermophilum); assay: photo-cross-linking; conditions: 5 mM Mg2+, 2.5 mM ATP, FA: 20 mM HEPES pH 7.5, 30 mM KCl, 5 mM MgCl2, 1 mM TCEP, 10 nM DNA, room temperature, photo-cross-linking: 20 mM HEPES pH 7.5, 50 mM KCl
[3] = tested on: ctXPD;ctp44 (Chaetomium thermophilum;Chaetomium thermophilum); assay: fluorescence anisotropy; conditions: FA: 20 mM HEPES pH 7.5, 30 mM KCl, 5 mM MgCl2, 1 mM TCEP, 10 nM DNA, room temperature, photo-cross-linking: 20 mM HEPES pH 7.5, 50 mM KCl
[4] = molecular target: ctXPD (XPD helicase from Chaetomium thermophilum) (Chaetomium thermophilum)

AAGCCTATGCCTACAGCATCCAGGGCGACGGTGCCGAGGATGACGATGAGCGCA / TGCGCTCATCGTCATCCTCGGCACCGTCGCCCTGGATG [fs-Fab(g)-dC 54/38]
binding signal (fold vs same probe without ATP) ([1]; 2.5 mM ATP, no ctp44, position 26 of strand 1 (B) = Fab(g)-dC, room temperature): 2.1 | binding signal (fold vs same mixture without ATP) ([2]; ctXPD adduct, position 26 of strand 1 (B) = Fab(g)-dC): 1.8 | binding signal (fold vs same mixture without ATP) ([2]; ctp44 adduct, position 26 of strand 1 (B) = Fab(g)-dC): 2

AAGCCTATGCCTACAGCATCCAGGGCGACGGTGCCGAGGATGACGATGAGCGCA / TGCGCTCATCGTCATCCTCGGCACCGTCGCCCTGGATG [fs-Fap-dC 54/38]
binding signal (relative cross-linking (reference)) ([1]; no ATP, no ctp44, Fap-dC at position 26 of strand 1 (position inferred from parallel oligos), room temperature): 1 | binding signal (fold vs same mixture without ATP) ([2]; ctXPD adduct, Fap-dC at position 26 of strand 1 (position inferred from parallel oligos)): 2.6 | binding signal (fold vs same mixture without ATP) ([2]; ctp44 adduct, Fap-dC at position 26 of strand 1 (position inferred from parallel oligos)): 2

AAGCCTATGCCTACAGCATCCAGGGCGACGGTGCCGAGGATGACGATGAGCGCA [ss-Fab(g)-dC 54]
binding signal (fold cross-linking vs ds probe) ([1]; position 26 (B) = Fab(g)-dC, room temperature, 5 mM MgCl2, 1 mM …): 3

AAGCCTATGCCTACAGCATCCAGGGCGACGGTGCCGAGGATGACGATGAGCGCA [ss-Fap-dC 54]
binding signal (fold cross-linking vs ds probe) ([1]; Fap-dC at position 26 (position inferred from parallel oligos), room …): 3

ATGCCTACAGCAAGCCTATGCCTACAGCATCCAGGGCGACGGTGCCGAG [ss-Fab(g)-dC 49]
K half ([3]; 5 mM Mg2+, 2 mM ATP, EC50, position 37 (B) = Fab(g)-dC): 268 nM

ATGCCTACAGCAAGCCTATGCCTACAGCATCCAGGGCGACGGTGCCGAG [ss-Fap-dC 49]
K half ([3]; 5 mM Mg2+, 2 mM ATP, EC50, Fap-dC at position 37 (position inferred from parallel oligos)): 307 nM | K half ([3]; Fap-dC at position 37 (position inferred from parallel oligos)): 200 nM

ATGCCTACAGCAAGCCTATGCCTACAGCATCCAGGGCGACGGTGCCGAG [ss-um 49]
K half ([3]; none): 500 nM

ATGCCTACAGCAAGCCTATGCCTACAGCATCCAGGGNGACGGTGCCGAG [ss-nAnt 49 (ss-Ant)]
K half ([3]; position 37 (N; printed A) = nAnt, N-[6-(9-anthracenylcarbamoyl)hexanoyl]-3-amino-1,2-propanediol, non-nucleoside lesion): 63 nM

ATGCCTACAGCAAGCCTATGCCTACAGCATCCAGGGNGACGGTGCCGAG [ss-nFlu 49]
K half ([3]; position 37 (N; printed F) = nFlu lesion): 3 nM

ctp44 (1-285) (domain or fragment)
ATPase activity of ctXPD (NADH-coupled assay, 37°C): activation by 4 to 1000 nM ctp44 titrated onto 250 nM ctXPD in the presence of 1 μM ssDNA [4]: 82 nM
